Measurements reported in patent US20210071162A1 (CENTRE NATIONAL DE LA RECHERCHE SCIENTIFIQUE, published 2021).

Assays:
GLM = biological target: T1, GLM
T1 chain: GLM

GMDSLAFSGGL = biological target: T2, GMDSLAFSGGL
T2 chain: GMDSLAFSGGL

Gly-Gly-pNA = biological target: T3, Gly-Gly-pNA
T3 chain: GG

LGG = biological target: T4, LGG
T4 chain: LGG

[1] = biological target: the molecule itself; test: self-assembly of PhTET4 subunits; size-exclusion chromatography and negative stain electron microscopy
Experimental: After the size exclusion chromatography step, 4 μl of PhTET4 at 0.05 mg/ml were deposited onto carbon-coated 400-mesh copper grids. The samples were stained using uranyl acetate 2% and air-dried. Images were taken under low-dose conditions in a T12FEI electron microscope working at 120 kV and with a nominal magnification of 40,000 using an Orius SC1000 CCD camera.
The three-dimensional structure of PhTET4 was assessed by producing the recombinant PhTET4 in E. coll. The cellular extract was clarified by heat shock precipitation and the recombinant protein was purified by ion-exchange and size-exclusion chromatographies. […] The dimensions and the shape of PhTET4 are analogous to the three P. horikoshii tetrahedral TET edifices: PhTET1, PhTET2 and PhTET3.

B1: PhTET4 (enzyme)
chain: MERIVKILREILEIPSPTGYTKEVMSYLEKFLKENEVNFYYTNKGALIAGNHPKPELVVIAHVDTLGAMVKEILPDGHLAFSRIGGLVLPTFEGEYCTIITRKGKKFRGTLLLRNPSAHVNREVGKKERKEENMYIRLDELVEKREDTEKLGIRPGDFIAFDPKFEYVNGFVKSHFLDDKASVAAILDLIIDMKDELEKYPVAFFFSPYEEVGHGGSAGYPPTTKELLVVDMGVVGEGVSGKETAVSIAAKDTTGPYDYDMTNRLIELAEENNIPYVVDVFPYYGSDGSAALRAGWDFRVALIGPGVHASHGMERTHVKGLLATKELIRAYIKWKG
notes: also called TET protein; protein encoded by PH0737 gene
GLM
  cleavage of the N-terminal residue of the peptide (reverse phase HPLC, N-terminal sequencing of products): PhTET4 does not exert amidolytic activity beyond the N-ter glycine in a peptide context
GMDSLAFSGGL
  cleavage of the N-terminal residue of the peptide (reverse phase HPLC, N-terminal sequencing of products): PhTET4 does not exert amidolytic activity beyond the N-ter glycine in a peptide context
Gly-Gly-pNA
  enzymatic activity against the chromogenic peptide (released pNA), relative to Gly-pNA: PhTET4 displayed significant activity against this substrate, corresponding to 10% of the total activity exhibited in presence of monoacyl compound Gly-pNA
LGG
  cleavage of the N-terminal residue of the peptide (reverse phase HPLC, N-terminal sequencing of products): no enzymatic activity was detected against peptide that do not start by glycine residue even if a glycine residue is present at P1′ position as demonstrated with the LGG tripeptide
[1]
  binding result: binds
